According to patent US20030199671A1 (published 2003):
Values belong to the binder of their own block, whether it stands above or below them. Starred links: 1 amine or outer side, 2 acyl side, 3 side chain; linkers in the order of their positions; H or OH if unused. Primed or numbered codes have the meaning given here. code X(3) = -NH-(CH2CH2O)2-CH2CH2- (from -X-NH2 = -NH-(CH2CH2O)2-CH2CH2-NH2), C(COCCOCC[*:2])N[*:1]; code Z = not defined here; Su = not defined here

Columns and labels:
human IgG3 [1] = molecular target: T1, human IgG3 (human, UniProt P01860-1 1-377); assay: anisotropy; pH 4.0 - salt
T1 construct: Calbiochem; plasma IgG3 in anisotropy studies, myeloma-derived (cat. 400124) in batch/column studies; also called hIgG3
T1 sequence (P01860 other isoform, or with tags, fused parts or gaps): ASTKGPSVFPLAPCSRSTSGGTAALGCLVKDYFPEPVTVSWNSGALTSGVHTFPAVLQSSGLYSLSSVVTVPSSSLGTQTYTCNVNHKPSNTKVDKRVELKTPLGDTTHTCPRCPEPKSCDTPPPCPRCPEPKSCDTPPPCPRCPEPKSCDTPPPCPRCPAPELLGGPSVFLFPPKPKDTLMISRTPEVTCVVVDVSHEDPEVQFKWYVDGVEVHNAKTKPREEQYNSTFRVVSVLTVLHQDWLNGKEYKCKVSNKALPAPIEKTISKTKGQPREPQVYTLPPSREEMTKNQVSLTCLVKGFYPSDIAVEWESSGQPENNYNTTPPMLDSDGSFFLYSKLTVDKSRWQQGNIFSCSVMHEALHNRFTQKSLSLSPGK

human IgG3 [2] = molecular target: T1, human IgG3; assay: anisotropy; pH 4.0 + salt
human IgG3 [3] = molecular target: T1, human IgG3; assay: batch binding, immobilised ligand
Experimental: (§1) IgG targets were diluted into 10 mM phosphate buffer containing 150 mM NaCl and 0.01% Tween 20, pH 7.2 (PBST) or 50 mM Tris buffer containing, 150 mM NaCl and 0.01% Tween-20, pH 7.5 (TBST). Batch (static) binding and elution studies were conducted in a 96-well assay filterplate (Millipore MultiScreen-HV, with 0.45 μm Durapore membrane, product no. MAHVN4510). The target was allowed to incubate with the resin for 1-1.5 hours with shaking at room temperature. Unbound target was collected by centrifugation of samples from the assay plate directly into a low-UV absorbing 96-well collection plate (Costar, product no. 3635 or Greiner, product no. 655801). The unbound target was then quantitated by reading the absorbance at 280 nm (normalized to 1 cm pathlength, 1.4 mg/ml A280 extinction coefficient) of the collection plate on a microplate spectrophotometer (Molecular Devices Corp., SPECTRAmax PLUS) against a buffer blank.
(§2) The percentage bound target was determined by subtracting the mass determined as unbound from the corresponding condition's control values (control non-filtered added directly to the collection plate and/or the negative control). The assay plate was washed (3×) with 200 μl of binding buffer by vacuum filtration followed by addition of 100 μl of various elution conditions (e.g.: 0.1 M sodium bicarbonate buffer, pH 8.5 and/or 0.1 M sodium citrate buffer, pH 4.0). After a 30-60 minute incubation with shaking at room temperature, the eluted target was collected by centrifugation of the assay plate into another collection plate and quantitated in a similar manner. Percent elution of total load was then determined to characterize elution recovery efficiency under various conditions.

human IgG2 [4] = molecular target: T2, human IgG2 (human, UniProt P01859-1 1-326 = IgG part); assay: batch binding, immobilised ligand
T2 construct: Calbiochem; plasma IgG2 in anisotropy studies, myeloma-derived (cat. 400122) in batch/column studies; also called hIgG2
T2 sequence (P01859 other isoform, or with tags, fused parts or gaps): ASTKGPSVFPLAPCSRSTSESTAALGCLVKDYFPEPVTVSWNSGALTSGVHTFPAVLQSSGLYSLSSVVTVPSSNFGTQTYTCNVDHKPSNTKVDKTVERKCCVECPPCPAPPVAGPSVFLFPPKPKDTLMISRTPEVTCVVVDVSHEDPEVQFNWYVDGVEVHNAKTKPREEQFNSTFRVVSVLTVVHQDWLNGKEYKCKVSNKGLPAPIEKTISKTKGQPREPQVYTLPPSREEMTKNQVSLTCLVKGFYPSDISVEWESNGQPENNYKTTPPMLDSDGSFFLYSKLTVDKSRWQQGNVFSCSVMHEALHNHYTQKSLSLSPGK
Experimental: as §1, §2

human IgG4 [5] = molecular target: T3, human IgG4 (human, UniProt P01861-1 1-327 = IgG part); assay: batch binding, immobilised ligand
T3 construct: Calbiochem; plasma IgG4 in anisotropy studies, myeloma-derived (cat. 400126) in batch/column studies; also called hIgG4
T3 sequence (P01861 other isoform, or with tags, fused parts or gaps): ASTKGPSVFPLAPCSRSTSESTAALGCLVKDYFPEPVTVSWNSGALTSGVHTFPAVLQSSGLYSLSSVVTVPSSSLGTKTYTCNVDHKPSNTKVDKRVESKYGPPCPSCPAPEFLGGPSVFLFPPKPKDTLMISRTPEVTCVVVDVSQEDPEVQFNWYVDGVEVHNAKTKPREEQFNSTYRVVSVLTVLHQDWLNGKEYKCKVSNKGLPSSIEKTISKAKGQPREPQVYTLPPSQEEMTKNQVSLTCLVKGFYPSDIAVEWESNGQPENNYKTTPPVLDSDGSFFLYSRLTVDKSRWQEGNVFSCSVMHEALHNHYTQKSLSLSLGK
Experimental: as §1, §2

human IgG1 [6] = molecular target: T4, human IgG1 (human, UniProt P01857-1 1-330 = IgG part); assay: batch binding, immobilised ligand
T4 construct: Calbiochem; human plasma IgG1 in anisotropy studies, myeloma-derived (cat. 400120) in batch/column studies; also called hIgG1
T4 sequence (P01857 other isoform, or with tags, fused parts or gaps): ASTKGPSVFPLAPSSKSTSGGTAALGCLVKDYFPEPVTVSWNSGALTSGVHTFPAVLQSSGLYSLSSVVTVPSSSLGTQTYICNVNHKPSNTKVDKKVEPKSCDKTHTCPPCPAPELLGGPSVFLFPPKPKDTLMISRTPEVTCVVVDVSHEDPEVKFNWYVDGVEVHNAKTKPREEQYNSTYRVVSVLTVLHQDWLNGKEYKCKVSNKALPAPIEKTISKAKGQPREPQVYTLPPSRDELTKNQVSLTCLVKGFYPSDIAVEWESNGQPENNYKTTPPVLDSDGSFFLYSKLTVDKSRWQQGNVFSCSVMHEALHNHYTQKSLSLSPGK
Experimental: as §1, §2

human IgG2 [7] = molecular target: T2, human IgG2; assay: mini-column chromatography, immobilised ligand
Experimental: (§3) Thus, 250 μg of target (hIgG1, hIgG2, hIgG3, hIgG4, goat IgG and bovine IgG) at 0.250 mg/ml in PBST, pH 7.2 or TBST, pH 7.3 was loaded onto a 350 μl column (3×50 mm) run at 0.200 ml/min. flowrate (170 cm/hr). Flowthrough, elution and cleaning fractions were collected and assayed for total protein recovery by size-exclusion HPLC.

human IgG4 [8] = molecular target: T3, human IgG4; assay: mini-column chromatography, immobilised ligand
Experimental: as §3

human IgG1 [9] = molecular target: T4, human IgG1; assay: mini-column chromatography, immobilised ligand
Experimental: as §3

human IgG2 [10] = molecular target: T2, human IgG2; assay: anisotropy; pH 4.0 - salt
human IgG4 [11] = molecular target: T3, human IgG4; assay: anisotropy; pH 4.0 - salt
human IgG1 [12] = molecular target: T4, human IgG1; assay: anisotropy; pH 4.0 - salt
human IgG3 [13] = molecular target: T1, human IgG3; assay: anisotropy; pH 7.5 + salt
human IgG3 [14] = molecular target: T1, human IgG3; assay: anisotropy; pH 9.5 + salt
human IgG4 [15] = molecular target: T3, human IgG4; assay: anisotropy; pH 7.5 - salt
human IgG1 [16] = molecular target: T4, human IgG1; assay: anisotropy; pH 7.5 - salt
[17] = molecular target: T5, human IgG (unfractionated, polyclonal); assay: filterplate; 25 mg human IgG applied per ml resin
T5 construct: also called hIgG; polyclonal human IgG
Experimental: After incubation of the samples, with shaking, at room temperature for one hour, the supernatant liquid from each well, containing unbound IgG, was collected by centrifugation into the cognate well of a collection plate. The assay plate was washed three times with PBST (200 μl/wash) and bound IgG was eluted from the media samples by incubation for 30-60 minutes at room temperature in 100 μl Elution Buffer (100 mM CAPS, pH 11.5). Eluates were collected by centrifugation for analysis. Protein concentrations were determined from A₂₈₀ measurements and plotted as a function of mg human IgG bound per ml resin vs. mg human IgG applied per ml resin.
These were subsequently tested in batch filterplate format for relative static capacity, human IgG subtype and species specificity as previously described. In addition, total dynamic capacities were determined for comparison. […] The static capacity (mg IgG bound per ml resin) was measured at the 2.5 mg/ml target concentration (25 mg human IgG applied per ml resin).

human IgG2 [18] = molecular target: T2, human IgG2; assay: anisotropy; pH 4.0 + salt
human IgG1 [19] = molecular target: T4, human IgG1; assay: anisotropy; pH 4.0 + salt
human IgG2 [20] = molecular target: T2, human IgG2; assay: anisotropy; pH 7.5 - salt

B1: DX413 (peptide)
peptide: Ac-AGYWYCWFPDRPECPLYPGPEGGGK-NH2
modifications: not fully specified (bridges); printed as Ac-AGYWYCWFPDRPECPLYPGPEGGGK-NH2; cysteine pairing not given here
Kd (human IgG3 [1]): 840 nM
Kd (human IgG3 [2]): 1100 nM

B3: DX389 (peptide)
peptide: Ac-AGPHNCDDHYWYCKWFPGPEGGGK-NH2
modifications: not fully specified (bridges); printed as Ac-AGPHNCDDHYWYCKWFPGPEGGGK-NH2; cysteine pairing not given here
notes: immobilised in batch assays
Kd (human IgG3 [1]): 2500 nM
Kd (human IgG3 [2]): 1800 nM

B4: DX253 (peptide)
peptide: Ac-GDRRACSRDWSGALVWCAGHEPGPEGGGK-NH2
modifications: not fully specified (bridges); printed as Ac-GDRRACSRDWSGALVWCAGHEPGPEGGGK-NH2; cysteine pairing not given here
notes: immobilised on Sepharose in batch/column assays
Bound (% of Total Load) (human IgG3 [3]): 0%
bdg % (of Total Load) (human IgG3 [3]): 15%
Bound (% of Total Load) (human IgG2 [4]): 81%
bdg % (of Total Load) (human IgG2 [4]): 63%
Bound (% of Total Load) (human IgG4 [5]): 60%
bdg % (of Total Load) (human IgG4 [5]): 40%
Bound (% of Total Load) (human IgG1 [6]): 86%
bdg % (of Total Load) (human IgG1 [6]): 56%
binding efficiency (human IgG2 [7]): > 90%
binding efficiency (human IgG4 [8]): > 90%
binding efficiency (human IgG1 [9]): > 90%

B6: DX398 (peptide)
peptide: Ac-AGAATCSTSYWYYQWFCTDSPGPEGGGK-NH2
modifications: not fully specified (bridges); printed as Ac-AGAATCSTSYWYYQWFCTDSPGPEGGGK-NH2; cysteine pairing not given here
notes: immobilised in batch assays
Kd (human IgG3 [1]): 20 nM
Kd (human IgG2 [10]): 1800 nM
Kd (human IgG4 [11]): 1600 nM
Kd (human IgG1 [12]): 2400 nM
Kd (human IgG3 [13]): 300 nM
Kd (human IgG3 [14]): 300 nM
Kd (human IgG3 [2]): 40 nM
Kd (human IgG4 [15]): 3500 nM
Kd (human IgG1 [16]): 4600 nM

B7: DX597 (peptide)
peptide: Ac-GDSWNCAFHHNEMVWCDDGGTPGPEGGGK-NH2
modifications: not fully specified (bridges); printed as Ac-GDSWNCAFHHNEMVWCDDGGTPGPEGGGK-NH2; cysteine pairing not given here
notes: Immobilised on Sepharose
Bound (% of Total Load) (human IgG3 [3]): 0%
Bound (% of Total Load) (human IgG2 [4]): 90%
Bound (% of Total Load) (human IgG4 [5]): 71%
Bound (% of Total Load) (human IgG1 [6]): 93%

B8: DX907 (peptide)
peptide: Ac-GDDHMCVYTTWGELIWCDNH-{code X(3)-NH2}
modifications: not fully specified (bridges); printed as Ac-GDDHMCVYTTWGELIWCDNH-X-NH2; cysteine pairing not given here
notes: DX249 derivative; immobilised
Static Cap. [17]: 10 mg/mL

B12: DX404 (peptide)
peptide: Ac-AGTYWCTFWELPCDPAPGPEGGGK-NH2
modifications: cysteine pairing not given here
notes: immobilised in batch/column assays
Kd (human IgG2 [10]): 1000 nM
Kd (human IgG1 [12]): 1500 nM
Kd (human IgG2 [18]): 2000 nM
Kd (human IgG1 [19]): 2000 nM
Kd (human IgG2 [20]): 8600 nM
Kd (human IgG1 [16]): 8800 nM

B13: DX392 (peptide)
peptide: Ac-AGSYWCKIWDVCPQSPGPEGGGK-NH2
modifications: not fully specified (bridges); printed as Ac-AGSYWCKIWDVCPQSPGPEGGGK-NH2; cysteine pairing not given here
notes: immobilised in batch assays
Kd (human IgG3 [1]): 320 nM
Kd (human IgG3 [2]): 600 nM

Next, values leading:

Bound (% of Total Load) (human IgG3 [3]): 0%
Bound (% of Total Load) (human IgG2 [4]): 82%
Bound (% of Total Load) (human IgG4 [5]): 59%
Bound (% of Total Load) (human IgG1 [6]): 87%
B2: DX1070 (peptide)
peptide: Ac-GDWGECTVTSYGELIWCGGLEPGPEGGGK-NH2
modifications: not fully specified (bridges); printed as Ac-GDWGECTVTSYGELIWCGGLEPGPEGGGK-NH2; cysteine pairing not given here
notes: Immobilised on Sepharose

Bound (% of Total Load) (human IgG3 [3]): 0%
Bound (% of Total Load) (human IgG2 [4]): 2%
Bound (% of Total Load) (human IgG4 [5]): 1%
Bound (% of Total Load) (human IgG1 [6]): 7%
B5: DX1071 (peptide)
peptide: Ac-GDNPMCWRASWWEDAYCINHEPGPEGGGK-NH2
modifications: not fully specified (bridges); printed as Ac-GDNPMCWRASWWEDAYCINHEPGPEGGGK-NH2; cysteine pairing not given here
notes: Derivative of DX596 (two internal lysines replaced by arginine and alanine); immobilised

Static Cap. [17]: 9 mg/mL
B9: DX911 (peptide)
peptide: Ac-GDDHMCVYTTWGELIWCDNH-{code X(3)-code Z-code X(3)-NH2}
modifications: not fully specified (bridges); printed as Ac-GDDHMCVYTTWGELIWCDNH-X-Z-X-NH2; cysteine pairing not given here; reading uncertain
notes: DX249 derivative; immobilised

Bound (% of Total Load) (human IgG3 [3]): 0%
Bound (% of Total Load) (human IgG2 [4]): 21%
Bound (% of Total Load) (human IgG4 [5]): 15%
Bound (% of Total Load) (human IgG1 [6]): 31%
B10: DX1072 (peptide)
peptide: Ac-GDNPMCWRAHWWEDAYCINHEPGPEGGGK-NH2
modifications: not fully specified (bridges); printed as Ac-GDNPMCWRAHWWEDAYCINHEPGPEGGGK-NH2; cysteine pairing not given here
notes: Derivative of DX596 (Lys-Lys to Arg-Ala and adjacent Ser to His); immobilised

Static Cap. [17]: 11 mg/mL
B11: DX909 (peptide)
peptide: Ac-GDDHMCVYTTWGELIWCDNH-{code X(3)-Su-code X(3)-NH2}
modifications: not fully specified (bridges); printed as Ac-GDDHMCVYTTWGELIWCDNH-X-Su-X-NH2; cysteine pairing not given here; reading uncertain
notes: DX249 derivative; immobilised
